Measurements taken from patent US20230000998A1.

Molecular target: human TrkB receptor (overexpressed on TrkB-NFAT-bla CHO-K1 reporter cells) (human) (UniProt Q16620)
Test: cell-based or functional assay

Sequence of human TrkB receptor (overexpressed on TrkB-NFAT-bla CHO-K1 reporter cells) (human) (Q16620 32-822): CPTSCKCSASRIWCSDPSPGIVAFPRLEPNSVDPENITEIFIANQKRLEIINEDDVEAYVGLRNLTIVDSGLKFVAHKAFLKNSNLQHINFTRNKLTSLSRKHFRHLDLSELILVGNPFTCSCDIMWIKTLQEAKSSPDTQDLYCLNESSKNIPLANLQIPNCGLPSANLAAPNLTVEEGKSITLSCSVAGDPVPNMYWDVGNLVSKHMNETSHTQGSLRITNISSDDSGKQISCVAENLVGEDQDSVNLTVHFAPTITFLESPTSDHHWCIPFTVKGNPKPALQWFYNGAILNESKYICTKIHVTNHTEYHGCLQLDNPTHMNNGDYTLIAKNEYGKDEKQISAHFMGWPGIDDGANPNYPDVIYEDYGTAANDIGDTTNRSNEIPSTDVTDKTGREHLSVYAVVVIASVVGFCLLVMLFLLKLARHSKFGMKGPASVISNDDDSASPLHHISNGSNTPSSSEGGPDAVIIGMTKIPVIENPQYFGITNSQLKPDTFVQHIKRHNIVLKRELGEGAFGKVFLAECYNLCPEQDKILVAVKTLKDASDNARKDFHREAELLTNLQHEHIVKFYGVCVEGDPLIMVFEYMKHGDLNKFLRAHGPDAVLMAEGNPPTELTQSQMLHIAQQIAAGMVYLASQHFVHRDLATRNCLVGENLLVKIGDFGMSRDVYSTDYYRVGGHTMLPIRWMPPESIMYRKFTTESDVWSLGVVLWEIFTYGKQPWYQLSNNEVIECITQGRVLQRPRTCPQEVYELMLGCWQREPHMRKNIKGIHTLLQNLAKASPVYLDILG

BDNF (brain derived neurotrophic factor; Peprotech) (from UniProt P23560 129-247) (ligand)
EC50 of beta-lactamase reporter response in TrkB-NFAT-bla CHO-K1 cells: 0.055 nM
